The results in this text go back to patent US20180265572A1 (Bristol-Myers Squibb, published 2018).

Values joined by “and” are separate entries in the source; they are usually repeats but may differ in a detail not shown here. Equal entries are not always repeated.

The target in one test is rat IGF1R (rat, UniProt P24062 31-933, limits assumed). Put plainly: method not stated; rat IGF1R.
A further test has as its target monkey IGF1R (monkey). Put plainly: method not stated.
The target in a further test is human IGF1R (human, UniProt P08069 31-932, limits assumed). Put plainly: method not stated; human IGF1R.
A further test concerns the target mouse IGF1R (mouse, UniProt Q60751 31-933, limits assumed). Put plainly: method not stated; mouse IGF1R.
The target in another test is T1, human IGF-IR on cells (human, UniProt P08069 31-1367).
T1 construct: whole, on cells; also called cell surface IGF-IR
Put plainly: competitive blocking assay on R+ cells overexpressing human IGF-IR; competitor 200 nM IRDye 800CW-labelled AT580-PEG20-AT580. The protocol: Certain tandem constructs were evaluated for their ability to compete with mono-specific IGF-IR and VEGFR-2 binders in vitro.
R⁺, a gift from Renato Baserga (Thomas Jefferson University, Philadelphia, Pa.), is a mouse embryo fibroblast overexpressing human IGF-IR in the context of a deletion in the mouse IGF-IR gene. Cells were plated in 96 well plates at a concentration of 20,000 cells per well in DMEM (Invitrogen, Carlsbad, Calif.) containing 5% calf serum (Hyclone, Logan, Utah). The following day, cells were washed twice in serum free DMEM containing 0.1% BSA (Invitrogen, Carlsbad, Calif.). After the washes, the cells were incubated at 4° C. for 10 minutes in binding buffer (serum free DMEM+0.1% BSA) containing increasing concentrations of IGF-IR antagonists or controls. Typical controls included the mono-specific ¹⁰Fn3-based IGF-IR binder (AT580-PEG40, SEQ ID NO: 27) (positive control) or the mono-specific ¹⁰Fn3-based VEGFR2 binder (Peg-V2Bshort, SEQ ID NO: 28) (negative control). Following this brief exposure to antagonists, R⁺ cells were additionally exposed to 200 nM of a bi-valent ¹⁰Fn3-based IGF-IR binder (AT580-PEG20-AT580, SEQ ID NO: 27) labeled with IRDye 800CW according to the manufacturer instructions (Li-Cor Biosciences, Lincoln, Nebr.). […] The resulting data was analyzed using GraphPad Prism (GraphPad Software, La Jolla, Calif.).

Test [1] addresses T2, VEGFR-2 (KDR) on transfected cells (UniProt P35968 20-1356, limits assumed).
T2 construct: whole, on cells; also called Flk-1
Put plainly: competitive blocking assay on 293:KDR cells; competitor 200 nM IRDye 800CW-labelled Peg-V2Bshort. The protocol:
(§1) Similarly, the pegylated, his-tagged construct 385A08-Fn-V2B-cys was able to block the interaction of a mono-specific ¹⁰Fn3-based VEGFR-2 binder (Peg-V2Bshort, SEQ ID NO: 28) with VEGFR-2 present on 293:KDR cells. […] In particular, in a Ba/F3 assay (described below), the IC₅₀ for the monomeric, non-pegylated VEGFR2 binder V2Bshort (SEQ ID NO: 28) is approximately 0.1-3 nM whereas the IC₅₀ for the monomeric, non-pegylated VEGFR2 binder having SEQ ID NO: 44 (e.g., with an N-terminal extension) is approximately 8-13 nM. […] Both the R⁺ and 293:KDR cell based competitive blocking assays are described in detail in the materials and methods section below.
(§2) 293:KDR (Sibtech, Brookfield, Conn.) were plated in 96 well plates at a concentration of 25,000 cells per well in DMEM (Invitrogen, Carlsbad, Calif.) containing 10% fetal bovine serum (Hyclone, Logan, Utah). The following day, cells were washed twice in serum free DMEM containing 0.1% BSA (Invitrogen, Carlsbad, Calif.). After the washes, the cells were incubated at 4° C. for 10 minutes in binding buffer (serum free DMEM+0.1% BSA) containing increasing concentrations of VEGFR-2 antagonists or controls. Typical controls included the mono-specific ¹⁰Fn3-based VEGFR2 binder (Peg-V2Bshort, SEQ ID NO: 28) (positive control) or the mono-specific ¹⁰Fn3-based IGF-IR binder (AT580-PEG40, SEQ ID NO: 27) (negative control). […]

For test [2], the target named is T3, human IGF-IR-Fc fusion (human, UniProt P08069 31-932).
T3 construct: range 1-932; If it counts on the precursor, it includes the signal peptide; also called IGF1R-Fc; not shown: hinge and constant regions of human IgG
Put plainly: SPR (Biacore), IGF1R-Fc captured on Protein A. The protocol:
(§3) Affinity data was also measured from midscale and large scale material, for the pegylated version of the tandem construct 385A08-Fn-V2B-cys (SEQ ID NO: 9, with and without his tag). The specific materials and methods for these calculations are described below.
(§4) An alternative method is to capture the IGF—IR-Fc on Protein A. This method was used for calculating the affinity and kinetics of certain versions of the construct 385A08-Fn-V2B-cys (both pegylated and non-pegylated and with or without his tag) from midscale and large scale materials. Specifically, IGF—IR-Fc was captured on Protein A immobilized on a Biacore CM5 sensor chip by amine coupling. VEGFR2-Fc was immobilized directly on a CM5 chip by amine coupling. The affinity and kinetic analysis involved the capture of IGF—IR-Fc on Protein A followed by injection of the tandem adnectin in solution over IGF—IR-Fc and VEGFR2-Fc. The analytical surface was regenerated between samples with glycine pH 1.5. Sensorgrams were obtained at each concentration and were evaluated using Biacore T100 evaluation software to determine the rate constants kₐ (kₒₙ) and kd (koff).

The target in test [3] is T3, human IGF-IR-Fc fusion. Put plainly: SPR (Biacore), IGF-IR-Fc captured on Protein A.
Excerpt: as §4

For test [4], the target named is T4, VEGFR2-Fc (R&D Systems) (UniProt P35968 20-764).
T4 construct: Bought reagent; not shown: Fc part of the bought fusion; not described
Put plainly: SPR (Biacore), VEGFR2-Fc immobilized directly on the chip. The method, then: as §3, §4
The functionality of the V2B domain was assessed by evaluating a concentration series of the midscale and large scale purification of the tandem construct 385A08-Fn-V2B (pegylated, and non-pegylated versions, his-tag and non-his-tag versions) vs. VEGFR2-Fc that was directly immobilized on a CM5 chip surface (GE, Piscataway, N.J.). VEGFR2-Fc (R&D Systems, MN) was diluted to 12 ug/mL in 50 mM Acetate pH 5.0 for an immobilization level of ˜1300 RU. Varying concentrations of 385A08-Fn-V2B in the solution phase were monitored for association (2 minutes) and dissociation (10 minutes) kinetics at a flow rate of 50 uL/min. Two 30 second injections of 50 mM glycine pH 1.7 were used to regenerate the surface.

Test [5] has as its target T3, human IGF-IR-Fc fusion. Put plainly: SPR (Biacore), captured IGF1R-Fc, midscale purified binder.
The target of test [6] is T2, VEGFR-2 (KDR) on transfected cells. Put plainly: competitive blocking assay on 293:KDR cells; ratio of the IC50 values. The protocol: as §1, §2
Test [7] has as its target T4, VEGFR2-Fc (R&D Systems). Put plainly: SPR (Biacore), VEGFR2-Fc immobilised directly on a CM5 chip.
Test [8] concerns the target VEGFR-2 in cynomolgus monkeys (in vivo). Put plainly: cell-based or functional assay.
The target of test [9] is VEGFR-2 in nude mice (in vivo) (UniProt P35918 20-1345, limits assumed). Put plainly: cell-based or functional assay.
For test [10], the target named is T4, VEGFR2-Fc (R&D Systems). Put plainly: SPR (Biacore), immobilized VEGFR2-Fc, midscale purified binder.

T3 sequence (P08069 31-932 limits assumed, form in doubt): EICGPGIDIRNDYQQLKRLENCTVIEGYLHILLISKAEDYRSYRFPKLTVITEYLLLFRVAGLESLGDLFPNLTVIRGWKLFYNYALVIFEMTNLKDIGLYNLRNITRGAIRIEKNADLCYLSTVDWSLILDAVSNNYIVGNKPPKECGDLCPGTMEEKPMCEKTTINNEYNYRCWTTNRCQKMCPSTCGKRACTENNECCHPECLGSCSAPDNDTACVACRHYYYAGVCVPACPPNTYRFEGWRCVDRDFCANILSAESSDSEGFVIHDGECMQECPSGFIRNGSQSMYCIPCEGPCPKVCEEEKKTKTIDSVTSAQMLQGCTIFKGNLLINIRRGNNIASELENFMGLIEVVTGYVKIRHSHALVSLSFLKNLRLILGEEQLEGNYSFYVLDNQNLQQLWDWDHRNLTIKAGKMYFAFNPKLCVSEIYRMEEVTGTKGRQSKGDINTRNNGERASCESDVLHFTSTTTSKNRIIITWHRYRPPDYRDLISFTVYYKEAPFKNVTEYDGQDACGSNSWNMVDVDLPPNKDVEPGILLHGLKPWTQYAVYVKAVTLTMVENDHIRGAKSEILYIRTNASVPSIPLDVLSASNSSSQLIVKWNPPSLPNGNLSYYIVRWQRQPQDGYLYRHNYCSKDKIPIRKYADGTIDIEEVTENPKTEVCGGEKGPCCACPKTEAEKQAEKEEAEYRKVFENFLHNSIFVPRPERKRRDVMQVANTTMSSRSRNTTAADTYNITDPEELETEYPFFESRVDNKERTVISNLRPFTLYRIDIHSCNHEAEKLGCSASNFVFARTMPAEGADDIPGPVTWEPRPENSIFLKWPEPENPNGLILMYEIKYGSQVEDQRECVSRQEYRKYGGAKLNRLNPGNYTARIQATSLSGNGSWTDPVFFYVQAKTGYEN
T4 sequence (P35968 20-764 limits assumed): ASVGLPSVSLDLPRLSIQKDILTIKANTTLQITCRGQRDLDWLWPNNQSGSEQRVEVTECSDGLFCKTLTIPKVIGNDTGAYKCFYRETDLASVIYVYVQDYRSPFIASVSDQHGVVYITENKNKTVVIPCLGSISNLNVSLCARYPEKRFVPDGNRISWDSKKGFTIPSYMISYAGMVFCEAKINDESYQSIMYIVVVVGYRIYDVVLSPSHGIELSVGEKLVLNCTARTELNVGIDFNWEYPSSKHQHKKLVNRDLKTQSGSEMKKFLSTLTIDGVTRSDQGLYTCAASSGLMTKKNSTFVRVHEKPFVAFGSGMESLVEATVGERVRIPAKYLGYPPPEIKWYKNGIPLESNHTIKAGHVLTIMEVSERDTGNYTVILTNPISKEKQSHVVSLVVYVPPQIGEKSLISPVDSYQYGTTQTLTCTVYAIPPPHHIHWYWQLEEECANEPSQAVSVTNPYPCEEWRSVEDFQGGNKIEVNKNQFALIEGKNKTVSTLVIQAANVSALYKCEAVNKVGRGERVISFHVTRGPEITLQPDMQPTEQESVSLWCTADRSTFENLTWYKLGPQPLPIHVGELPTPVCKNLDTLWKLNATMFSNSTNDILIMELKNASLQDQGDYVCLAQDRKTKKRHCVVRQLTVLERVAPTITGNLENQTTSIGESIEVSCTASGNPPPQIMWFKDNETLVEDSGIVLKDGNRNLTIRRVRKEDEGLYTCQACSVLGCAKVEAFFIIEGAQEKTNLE
T2 sequence (P35968 20-1356 limits assumed): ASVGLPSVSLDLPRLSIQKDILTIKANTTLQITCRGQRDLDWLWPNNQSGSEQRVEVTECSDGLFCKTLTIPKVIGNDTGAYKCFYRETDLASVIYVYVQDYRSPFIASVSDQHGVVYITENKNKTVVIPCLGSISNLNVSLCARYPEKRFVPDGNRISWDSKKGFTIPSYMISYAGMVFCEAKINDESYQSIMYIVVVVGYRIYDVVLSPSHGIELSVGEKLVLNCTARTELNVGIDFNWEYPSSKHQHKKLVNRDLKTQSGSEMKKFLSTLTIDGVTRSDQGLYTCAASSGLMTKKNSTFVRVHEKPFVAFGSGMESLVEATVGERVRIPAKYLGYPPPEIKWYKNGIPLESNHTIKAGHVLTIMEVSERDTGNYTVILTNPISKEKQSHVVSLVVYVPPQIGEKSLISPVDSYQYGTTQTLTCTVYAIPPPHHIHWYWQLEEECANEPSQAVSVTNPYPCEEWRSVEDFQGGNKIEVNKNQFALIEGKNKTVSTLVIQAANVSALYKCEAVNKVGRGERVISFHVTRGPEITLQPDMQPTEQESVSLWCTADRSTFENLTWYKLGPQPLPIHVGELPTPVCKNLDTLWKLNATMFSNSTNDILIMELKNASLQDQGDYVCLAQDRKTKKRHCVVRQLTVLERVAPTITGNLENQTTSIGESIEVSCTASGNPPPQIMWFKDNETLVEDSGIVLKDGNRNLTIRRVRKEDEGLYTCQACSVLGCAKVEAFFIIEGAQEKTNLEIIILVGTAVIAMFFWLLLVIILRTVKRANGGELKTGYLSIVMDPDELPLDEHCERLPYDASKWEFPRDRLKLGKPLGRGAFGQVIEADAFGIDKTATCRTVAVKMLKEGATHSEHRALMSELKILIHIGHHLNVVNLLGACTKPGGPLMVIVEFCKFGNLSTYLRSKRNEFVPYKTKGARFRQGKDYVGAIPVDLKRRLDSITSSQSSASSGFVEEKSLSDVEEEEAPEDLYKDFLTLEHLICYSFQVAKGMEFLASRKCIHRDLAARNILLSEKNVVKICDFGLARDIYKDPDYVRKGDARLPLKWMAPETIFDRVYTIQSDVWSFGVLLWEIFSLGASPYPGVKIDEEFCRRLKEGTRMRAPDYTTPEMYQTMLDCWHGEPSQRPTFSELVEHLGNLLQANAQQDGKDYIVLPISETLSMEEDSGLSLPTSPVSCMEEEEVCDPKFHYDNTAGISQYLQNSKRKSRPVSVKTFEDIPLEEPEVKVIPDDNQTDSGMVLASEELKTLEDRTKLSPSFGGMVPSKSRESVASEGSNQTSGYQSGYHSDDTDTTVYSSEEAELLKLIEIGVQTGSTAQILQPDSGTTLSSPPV
Chain of mouse IGF1R (Q60751 31-933 limits assumed): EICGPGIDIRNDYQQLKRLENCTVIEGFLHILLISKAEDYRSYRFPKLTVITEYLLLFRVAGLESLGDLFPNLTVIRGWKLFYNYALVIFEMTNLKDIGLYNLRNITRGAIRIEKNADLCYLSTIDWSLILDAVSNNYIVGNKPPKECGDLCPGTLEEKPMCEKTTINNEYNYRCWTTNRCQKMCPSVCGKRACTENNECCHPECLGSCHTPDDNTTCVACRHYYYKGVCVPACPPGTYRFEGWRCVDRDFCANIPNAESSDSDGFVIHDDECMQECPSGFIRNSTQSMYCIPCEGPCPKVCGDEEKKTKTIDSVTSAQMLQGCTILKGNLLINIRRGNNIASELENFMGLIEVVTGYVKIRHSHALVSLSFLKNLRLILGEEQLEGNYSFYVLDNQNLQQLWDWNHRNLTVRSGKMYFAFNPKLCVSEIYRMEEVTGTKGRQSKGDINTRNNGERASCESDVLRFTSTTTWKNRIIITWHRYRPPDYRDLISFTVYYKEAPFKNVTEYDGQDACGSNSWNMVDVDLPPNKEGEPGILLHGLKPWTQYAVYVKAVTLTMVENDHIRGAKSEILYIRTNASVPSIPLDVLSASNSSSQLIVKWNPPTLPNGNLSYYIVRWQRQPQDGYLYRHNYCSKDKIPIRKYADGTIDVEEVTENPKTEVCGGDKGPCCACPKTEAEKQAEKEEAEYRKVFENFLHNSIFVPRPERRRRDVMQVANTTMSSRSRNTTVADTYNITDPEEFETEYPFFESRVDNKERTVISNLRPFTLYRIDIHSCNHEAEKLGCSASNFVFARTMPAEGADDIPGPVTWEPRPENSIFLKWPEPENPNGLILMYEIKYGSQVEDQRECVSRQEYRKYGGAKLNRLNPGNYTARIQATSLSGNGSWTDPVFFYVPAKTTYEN
Chain of human IGF1R (P08069 31-932 limits assumed): as the sequence (P08069 31-932 limits assumed, form in doubt) above
Chain of rat IGF1R (P24062 31-933 limits assumed): as the sequence (Q60751 31-933 limits assumed) above, with D271G, Y629F, M714L counted along it

B1: 385A08-Fn-V2B-cys (with Peg) (designed binder)
chain: MGVSDVPRDLEVVAATPTSLLISWSARLKVARYYRITYGETGGNSPVQEFTVPKNVYTATISGLKPGVDYTITVYAVTRFRDYQPISINYRTEIDKPSTSTSTVSDVPRDLEVVAATPTSLLISWRHPHFPTRYYRITYGETGGNSPVQEFTVPLQPPTATISGLKPGVDYTITVYAVTDGRNGRLLSIPISINYRTEIDKPCQ
modifications: PEG on the single cysteine at position 203
In the case of B1, the Kd turned out to be 92 nM with rat IGF1R, 0.213 nM with monkey IGF1R, 0.277 nM in the test with human IGF1R and 86 nM with mouse IGF1R.

B2: pegylated, his-tagged 385A08-Fn-V2B-cys (designed binder)
chain: MGVSDVPRDLEVVAATPTSLLISWSARLKVARYYRITYGETGGNSPVQEFTVPKNVYTATISGLKPGVDYTITVYAVTRFRDYQPISINYRTEIDKPSTSTSTVSDVPRDLEVVAATPTSLLISWRHPHFPTRYYRITYGETGGNSPVQEFTVPLQPPTATISGLKPGVDYTITVYAVTDGRNGRLLSIPISINYRTEIDKPCQHHHHHH
modifications: 40 kD PEG on the single cysteine at position 203 (linear PEG in paragraph 246; type of PEG not stated in Example 6)
notes: also called 385A08-Fn-V2B-cys (with PEG and his-tag); linear pegylated, his-tagged 385A08-Fn-V2B-cys
For B2, the IC50 in the test with human IGF-IR on cells is 900 nM; in test [1], approximately 140 nM. For the same molecule, the Kd is 0.831 nM and 0.465 nM and 0.857 nM with human IGF-IR-Fc fusion [2]; 1.2 nM in the test with human IGF-IR-Fc fusion [3]; 11 nM and 5.96 nM and 12.6 nM with VEGFR2-Fc (R&D Systems) [4]; 14 nM with VEGFR2-Fc (R&D Systems) [7]. For the same molecule, the koff with human IGF-IR-Fc fusion [2] was 0.00025 s⁻¹ and 0.000223 s⁻¹ and 0.000238 s⁻¹; with VEGFR2-Fc (R&D Systems) [4], 9.5e-05 s⁻¹ (2×) and 0.00013 s⁻¹; with human IGF-IR-Fc fusion [5] it was 0.000233 s⁻¹; with VEGFR2-Fc (R&D Systems) [10] it was 0.000149 s⁻¹. In addition, the kon is 299000 M⁻¹ s⁻¹ and 480000 M⁻¹ s⁻¹ and 277000 M⁻¹ s⁻¹ with human IGF-IR-Fc fusion [2]; 8600 M⁻¹ s⁻¹ and 21800 M⁻¹ s⁻¹ and 7530 M⁻¹ s⁻¹ with VEGFR2-Fc (R&D Systems) [4]; 200000 M⁻¹ s⁻¹ with human IGF-IR-Fc fusion [5]; 10600 M⁻¹ s⁻¹ with VEGFR2-Fc (R&D Systems) [10]. In addition, the “fold difference in activity against Peg-V2Bshort” value in test [6] turned out to be 7 fold. For the same molecule, in test [8], the “plasma IC50 (grand mean), PK/PD model, monkeys” value was found to be 228 nM. Also, in test [9], the “plasma IC50, indirect-response PD model, nude mice bearing the Rh41 tumor” value was found to be 13800 nM.
